Measured values published in IntAct's records for PubMed 31262713.

B1: Protein Niban 2 (Homo sapiens), Q96TA1 (parent)
chain: MGDVLSTHLDDARRQHIAEKTGKILTEFLQFYEDQYGVALFNSMRHEIEGTGLPQAQLLWRKVPLDERIVFSGNLFQHQEDSKKWRNRFSLVPHNYGLVLYENKAAYERQVPPRAVINSAGYKILTSVDQYLELIGNSLPGTTAKSGSAPILKCPTQFPLILWHPYARHYYFCMMTEAEQDKWQAVLQDCIRHCNNGIPEDSKVEGPAFTDAIRMYRQSKELYGTWEMLCGNEVQILSNLVMEELGPELKAELGPRLKGKPQERQRQWIQISDAVYHMVYEQAKARFEEVLSKVQQVQPAMQAVIRTDMDQIITSKEHLASKIRAFILPKAEVCVRNHVQPYIPSILEALMVPTSQGFTEVRDVFFKEVTDMNLNVINEGGIDKLGEYMEKLSRLAYHPLKMQSCYEKMESLRLDGLQQRFDVSSTSVFKQRAQIHMREQMDNAVYTFETLLHQELGKGPTKEELCKSIQRVLERVLKKYDYDSSSVRKRFFREALLQISIPFLLKKLAPTCKSELPRFQELIFEDFARFILVENTYEEVVLQTVMKDILQAVKEAAVQRKHNLYRDSMVMHNSDPNLHLLAEGAPIDWGEEYSNSGGGGSPSPSTPESATLSEKRRRAKQVVSVVQDEEVGLPFEASPESPPPASPDGVTEIRGLLAQGLRPESPPPAGPLLNGAPAGESPQPKAAPEASSPPASPLQHLLPGKAVDLGPPKPSDQETGEQVSSPSSHPALHTTTEDSAGVQTEF

Columns and labels:
[1] = variants of: B1; conditions: with keap1_human KEAP1, Q14145
Sequence of keap1_human KEAP1, Q14145 (Q14145 whole entry): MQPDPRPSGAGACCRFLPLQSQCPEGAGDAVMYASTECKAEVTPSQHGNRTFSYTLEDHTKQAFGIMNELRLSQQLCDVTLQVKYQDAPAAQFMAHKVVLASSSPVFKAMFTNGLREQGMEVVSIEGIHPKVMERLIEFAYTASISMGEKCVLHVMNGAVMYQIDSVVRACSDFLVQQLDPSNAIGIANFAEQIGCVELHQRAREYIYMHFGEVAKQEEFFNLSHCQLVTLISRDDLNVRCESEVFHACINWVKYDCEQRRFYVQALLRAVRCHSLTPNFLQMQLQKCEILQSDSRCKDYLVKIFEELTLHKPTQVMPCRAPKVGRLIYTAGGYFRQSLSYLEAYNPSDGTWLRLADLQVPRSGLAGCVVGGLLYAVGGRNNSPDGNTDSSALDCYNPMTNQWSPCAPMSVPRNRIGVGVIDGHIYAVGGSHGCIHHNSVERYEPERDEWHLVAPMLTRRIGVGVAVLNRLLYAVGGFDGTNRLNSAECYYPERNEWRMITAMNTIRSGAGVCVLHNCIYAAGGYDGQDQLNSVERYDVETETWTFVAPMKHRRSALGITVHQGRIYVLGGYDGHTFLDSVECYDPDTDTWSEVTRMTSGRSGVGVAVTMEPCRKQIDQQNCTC

[2] = variants of: B1; conditions: with keap1_human KEAP1, Q14145; remark: listed apart in the source

effect of a mutation on the interaction [1] | effect of a mutation on the interaction [2] | Variant
disrupting interaction strength | disrupting interaction strength | G710A;E718A;T719A
disrupting interaction strength |  | E718A;T719A
with no effect | disrupting interaction strength | G710A
